Experimental data from article PMC3769986 (Soft matter, 2011).
Read-outs that look alike come from different tables or passages of the source.

Columns and labels:
[1] = biological target: the molecule itself; experiment: small angle neutron scattering
[2] = biological target: the molecule itself; experiment: small angle neutron scattering; remark: listed apart in the source

B1: 17H6 (other)
chain: MGHHHHHHHHHHSSGHIHMAAAQEAAAAQAAAQAEAAQAAQAAAQEAAAAQAAAQAEAAQAAQAAAQEAAAAQAAAQAEAAQAAQAAAQEAAAAQAAAQAEAAQAAQAAAQEAAAAQAAAQAEAAQAAQAAAQEAAAAQAAAQAEAAQAAQAGGYGGMG
[1]
  stoichiometry N: 266 ± 3
[2]
  stoichiometry N: 171 ± 2
